Data on two substances can be found in patent US20180243408A1.

Assay [1] addresses Arah2-pσ1 fusion protein. In words: flow cytometry; control serum in place of anti-pσ1 serum on L cells stained with Arah2-pσ1, FITC-labeled anti-rabbit.
The target in assay [2] is Arah2-pσ1 fusion protein. In words: flow cytometry; control serum in place of anti-pσ1 serum on HeLa cells stained with Arah2-pσ1, FITC-labeled anti-rabbit.
Assay [3] concerns the target component of tight junctions expressed by L-cells. In words: flow cytometry on L cells, 20 µg Arah2-pσ1, detected with anti-pσ1 rabbit serum and FITC-labeled anti-rabbit.

Take normal rabbit serum: the MFI was found to be 32 MFI in the assay with Arah2-pσ1 fusion protein [1] and 26 MFI with Arah2-pσ1 fusion protein [2].
In assay [3], Arah2-pσ1 fusion protein registered an MFI of 1880 MFI.
